The supplement of paper PMC9876800

System: peptide library, one residue held at a place counted from the S/T acceptor
Experiment: relative phosphorylation of the sub-library (ratio to the mean residue at this position); higher = residue favoured
How it was run: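 Purified recombinant kinases were reacted in 384-well plates with biotinylated degenerate peptide sub-libraries, each having one residue fixed at one position around a central Ser/Thr. The reaction mix contained 50 μM peptide plus 50 μM ATP spiked with γ-32P-ATP and ran for 90 min under kinase-specific conditions. Relative sub-library phosphorylation, taken from densitometry of phosphorimaged streptavidin membrane spots, is a ratio to the mean residue at that position.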

WNK1, construct: aa171-529, human, sequence (Q9H4A3 171-529, looked up): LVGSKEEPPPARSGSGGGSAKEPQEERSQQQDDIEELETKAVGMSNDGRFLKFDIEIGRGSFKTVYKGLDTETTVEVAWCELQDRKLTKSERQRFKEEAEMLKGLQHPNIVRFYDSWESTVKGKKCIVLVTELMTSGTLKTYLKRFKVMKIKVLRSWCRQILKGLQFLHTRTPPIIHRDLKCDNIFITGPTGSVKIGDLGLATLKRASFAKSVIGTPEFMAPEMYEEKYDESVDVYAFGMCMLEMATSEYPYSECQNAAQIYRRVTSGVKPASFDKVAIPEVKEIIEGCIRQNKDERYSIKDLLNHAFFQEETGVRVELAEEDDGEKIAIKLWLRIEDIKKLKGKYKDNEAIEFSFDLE
UHMK1, construct: Full length, rat, sequence (Q63285 whole entry, looked up): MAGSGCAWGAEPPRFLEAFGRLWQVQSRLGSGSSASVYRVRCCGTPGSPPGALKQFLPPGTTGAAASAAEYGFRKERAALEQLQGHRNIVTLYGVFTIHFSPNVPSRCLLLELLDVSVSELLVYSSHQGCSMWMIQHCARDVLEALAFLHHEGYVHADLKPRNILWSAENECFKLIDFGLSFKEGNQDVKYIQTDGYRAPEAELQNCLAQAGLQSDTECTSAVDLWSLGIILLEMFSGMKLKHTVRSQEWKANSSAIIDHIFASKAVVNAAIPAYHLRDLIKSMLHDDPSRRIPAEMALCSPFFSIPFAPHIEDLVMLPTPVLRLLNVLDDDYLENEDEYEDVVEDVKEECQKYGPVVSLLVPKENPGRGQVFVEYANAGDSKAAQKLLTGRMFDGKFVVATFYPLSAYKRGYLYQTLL

UHMK1, construct: Full length, rat (from UniProt Q63285)
relative phosphorylation
Settings | at +1 | at +2 | at +3 | at +4 | at -1 | at -2 | at -3 | at -4 | at -5
A fixed | 0.707 | 1.1 | 1.58 | 1.14 | 1.16 | 1.12 | 0.872 | 0.961 | 0.981
D fixed | 0.246 | 0.442 | 0.33 | 0.594 | 1.67 | 3.17 | 3.13 | 1.43 | 1.11
E fixed | 0.266 | 0.515 | 0.397 | 1.54 | 0.818 | 1.86 | 2.01 | 1.14 | 1.02
F fixed | 0.343 | 1.09 | 1.12 | 0.824 | 0.666 | 0.678 | 0.626 | 0.742 | 0.715
G fixed | 0.86 | 1.08 | 0.906 | 0.915 | 1.54 | 1.22 | 1.11 | 1.02 | 0.994
H fixed | 0.349 | 0.936 | 0.99 | 0.78 | 0.872 | 0.714 | 0.822 | 0.872 | 1.45
I fixed | 0.665 | 1.18 | 0.77 | 1.36 | 0.636 | 0.663 | 0.704 | 0.917 | 0.931
K fixed | 0.437 | 1.07 | 0.477 | 0.761 | 0.939 | 0.636 | 0.625 | 1.15 | 1.64
L fixed | 0.363 | 1.02 | 0.872 | 0.86 | 0.808 | 0.677 | 0.672 | 0.95 | 1.22
M fixed | 0.362 | 0.76 | 0.601 | 0.847 | 0.73 | 0.599 | 0.647 | 0.703 | 0.748
N fixed | 0.299 | 0.664 | 0.402 | 0.588 | 1.36 | 0.945 | 1.09 | 1.28 | 1.18
P fixed | 10.2 | 2.02 | 4.75 | 1.07 | 1.9 | 1.37 | 1.17 | 1.16 | 0.952
Q fixed | 0.321 | 0.729 | 0.447 | 1.46 | 0.957 | 0.693 | 0.801 | 0.769 | 0.669
R fixed | 0.388 | 0.958 | 0.829 | 0.681 | 0.81 | 0.592 | 0.674 | 0.677 | 0.749
V fixed | 0.475 | 1.37 | 0.887 | 1.89 | 0.763 | 0.786 | 0.69 | 0.734 | 0.758
W fixed | 0.362 | 0.831 | 0.732 | 0.792 | 0.681 | 0.631 | 0.665 | 1.79 | 1.13
Y fixed | 0.337 | 1.25 | 0.91 | 0.891 | 0.687 | 0.642 | 0.685 | 0.712 | 0.749
pThr fixed | 0.306 | 0.654 | 0.572 | 0.747 | 1.2 | 5.01 | 2.73 | 1.9 | 2.82
pTyr fixed | 0.357 | 0.536 | 0.505 | 1.06 | 0.702 | 2.41 | 2.11 | 1.36 | 0.883

WNK1, construct: aa171-529, human (from UniProt Q9H4A3)
relative phosphorylation
Settings | at +1 | at +2 | at +3 | at +4 | at -1 | at -2 | at -3 | at -4 | at -5
A fixed | 0.732 | 1.03 | 0.811 | 0.927 | 1.25 | 1.57 | 0.952 | 1.02 | 0.944
D fixed | 0.238 | 1.07 | 0.679 | 0.746 | 0.328 | 0.241 | 0.314 | 0.487 | 0.493
E fixed | 0.257 | 0.75 | 0.619 | 0.759 | 0.445 | 0.263 | 0.371 | 0.536 | 0.53
F fixed | 1.18 | 0.759 | 1.52 | 1.24 | 0.802 | 0.764 | 0.799 | 0.86 | 1.12
G fixed | 0.84 | 0.934 | 0.828 | 0.839 | 1.1 | 2.18 | 0.926 | 0.88 | 0.867
H fixed | 0.762 | 0.794 | 1.17 | 0.888 | 0.887 | 1.31 | 0.979 | 1 | 0.932
I fixed | 1.17 | 1.24 | 0.89 | 1.13 | 0.75 | 0.748 | 0.85 | 0.951 | 0.955
K fixed | 1.22 | 1.19 | 1.43 | 1.5 | 2.19 | 1.44 | 2.48 | 2.01 | 1.82
L fixed | 1.34 | 0.984 | 0.958 | 1.02 | 0.891 | 0.641 | 0.951 | 1.02 | 1.22
M fixed | 1.82 | 0.899 | 0.954 | 0.952 | 1.07 | 0.597 | 0.855 | 0.952 | 0.974
N fixed | 0.895 | 0.665 | 0.783 | 0.719 | 0.719 | 0.714 | 0.606 | 0.872 | 0.712
P fixed | 0.288 | 0.457 | 0.582 | 0.936 | 0.586 | 1.25 | 1.01 | 0.763 | 0.819
Q fixed | 1.18 | 0.65 | 0.734 | 0.861 | 1.21 | 0.954 | 0.845 | 0.795 | 0.698
R fixed | 2.01 | 2.97 | 1.69 | 1.37 | 2.5 | 2.25 | 2.63 | 1.83 | 1.54
V fixed | 0.986 | 1.21 | 0.809 | 0.992 | 0.971 | 0.957 | 0.961 | 1.06 | 1.12
W fixed | 0.888 | 0.635 | 1.23 | 1.08 | 0.574 | 0.462 | 0.621 | 0.856 | 1.11
Y fixed | 1.18 | 0.759 | 1.31 | 1.03 | 0.735 | 0.669 | 0.858 | 1.1 | 1.15
pThr fixed | 0.58 | 0.863 | 0.707 | 0.803 | 0.61 | 0.852 | 0.854 | 0.882 | 0.702
pTyr fixed | 0.662 | 0.911 | 0.849 | 0.78 | 0.789 | 0.573 | 0.806 | 0.666 | 0.637
